Laboratory results as given in paper PMC3404464 (ACS medicinal chemistry letters, 2012).

Columns and labels:
[1] = test system: CO[C@@H]1O[C@H](CO)[C@@H](O[C@@H]2O[C@H](CO)[C@@H](O)[C@H](O)[C@H]2NC(C)=O)[C@H](O[C@H](C)C(=O)N[C@@H](C)C(=O)N[C@H](CCC(=O)N[C@@H](CCC[C@@H](N)C(=O)O)C(=O)N[C@H](C)C(=O)N[C@H](C)C(=O)O)C(=O)O)[C@H]1NC(C)=O; assay: Turnover of synthetic substrates by NagZ; type: biochemical, Pseudomonas aeruginosa; settings: other: substrate hydrolysis by NagZ
[2] = test system: CC(=O)N[C@H]1[C@H](O[C@H]2[C@H](O[C@H](C)C(=O)N[C@@H](C)C(=O)N[C@H](CCC(=O)N[C@@H](CCC[C@@H](N)C(=O)O)C(=O)N[C@H](C)C(=O)N[C@H](C)C(=O)O)C(=O)O)[C@@H](NC(C)=O)[C@@H]3OC[C@H]2O3)O[C@H](CO)[C@@H](O)[C@@H]1O; assay: Turnover of synthetic substrates by NagZ; type: biochemical, Pseudomonas aeruginosa; settings: other: substrate hydrolysis by NagZ
[3] = target: lytic transglycosylase MltB of Escherichia coli (Escherichia coli, UniProt P41052); assay: MltB binding by intrinsic tryptophan/tyrosine fluorescence; settings: excitation 280 nm
Chain of lytic transglycosylase MltB of Escherichia coli (P41052 19-361): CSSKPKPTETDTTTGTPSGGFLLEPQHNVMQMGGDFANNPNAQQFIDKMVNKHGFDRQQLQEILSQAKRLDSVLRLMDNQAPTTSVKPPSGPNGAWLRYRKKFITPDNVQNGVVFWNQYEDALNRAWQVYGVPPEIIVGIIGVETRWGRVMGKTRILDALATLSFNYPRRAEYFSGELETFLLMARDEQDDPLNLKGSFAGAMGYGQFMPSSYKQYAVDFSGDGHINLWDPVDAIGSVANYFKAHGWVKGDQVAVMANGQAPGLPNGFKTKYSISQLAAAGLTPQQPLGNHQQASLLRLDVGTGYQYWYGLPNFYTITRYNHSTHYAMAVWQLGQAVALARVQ

Compound	Km [1] [µM]	kcat [1] [s⁻¹]	kcat/Km [1]	Km [2] [µM]	kcat [2] [s⁻¹]	kcat/Km [2]	kns (non-saturable, presumably non-specific binding mode) [3] [µM⁻¹]
NagZ of P. aeruginosa (Pseudomonas aeruginosa PAO1)	165 ± 36	0.77 ± 0.04	(0.5 ± 0.1) × 10^4 M^−1s^−1	104 ± 2	6.6 ± 0.2	6.3 ± 0.2 × 10^4 M^−1s^−1	
CC(=O)N[C@H]1CN[C@H](CO)[C@@H](O)[C@@H]1O[C@H](C)C(=O)O.Cl [compound 4]							0.060 ± 0.006
CC(=O)N[C@H]1CN[C@H](CO)[C@@H](O)[C@@H]1O.Cl [compound 3, 2-acetamido-1,2-dideoxynojirimycin]							0.128 ± 0.004
